Experimental data taken from patent publication JP2014150761A (dated 2014).

What was measured:
[1] = molecular target: T1, mouse beta-NGF (R&D Systems) (mouse, UniProt P01139 122-241); assay: cell-based or functional assay
[2] = molecular target: T2, human beta-NGF (R&D Systems) (human, UniProt P01138 122-241); assay: cell-based or functional assay
[3] = molecular target: T2, human beta-NGF (R&D Systems); assay: competition ELISA: inhibition of biotin-human βNGF binding to immobilised human trkA (Example 3)
[4] = molecular target: T2, human beta-NGF (R&D Systems); assay: isothermal titration calorimetry in PBS: 44 μM human βNGF titrated into 1.5 μM Tanezumab, single site binding model
[5] = molecular target: T1, mouse beta-NGF (R&D Systems); assay: competition ELISA with biotin-mouse βNGF on immobilised trkA (Example 4)
[6] = molecular target: T2, human beta-NGF (R&D Systems); assay: screening by Examples 3 to 8 (NGF-trkA binding inhibition ELISA, cell assays)
[7] = molecular target: T2, human beta-NGF (R&D Systems); assay: papain Fab tested by Examples 3, 6 and 7

B1: PEGylated 1-15(N52D)-Fab' (Fab, V domains shown)
VH: QVQLQQWGAGLLKPSETLSLTCAVYGGSFSGYYWSWVRQPPGKGLEWIGEIDHSGSTNNNPSLKSRVTISVGTSKNQFSLKLSSVTAADTAVYYCSRDGGPESGMGAFDIWGQGTMVTVSS
VL: not shown
modifications: 40 kDa PEG (SUNBRIGHT GL2-400MA, maleimide) on the C-terminal Cys (EU C226; Cys 230 of SEQ ID NO 10)
Question: Which results are given for B1?
Answer: IC50, neutralizing activity by the method of Example 6 (Ca2+ rise, HEK293 cells expressing human trkA) [1]: 0.069 µg/mL; fold stronger neutralizing activity than Tanezumab (method of Example 6) [1]: ~3.3 fold

B2: 1-15(N52D-A)-Fab'-5kPEG (Fab, V domains shown)
VH: QVQLQQWGAGLLKPSETLSLTCAVYGGSFSGYYWSWVRQPPGKGLEWIGEIDHSGSTNNNPSLKSRVTISVGTSKNQFSLKLSSVTAADTAVYYCSRDGGPESGMGAFDIWGQGTMVTVSS
VL: not shown
modifications: 5 kDa PEG (SUNBRIGHT GL2-50MA) bound by the procedure of Example 13 (hinge Cys)
Question: Which “IC50, neutralizing activity by the method of Example 6 (final NGF concentration 50 ng/ml)” value [2] does the source give for B2 here?
Answer: Its value is 0.03 µg/mL.

B3: 1-15(N52D-A)-Fab'-10kPEG (Fab, V domains shown)
VH: QVQLQQWGAGLLKPSETLSLTCAVYGGSFSGYYWSWVRQPPGKGLEWIGEIDHSGSTNNNPSLKSRVTISVGTSKNQFSLKLSSVTAADTAVYYCSRDGGPESGMGAFDIWGQGTMVTVSS
VL: not shown
modifications: 10 kDa PEG (SUNBRIGHT GL2-100MA) bound by the procedure of Example 13 (hinge Cys)
Question: How did the “IC50, neutralizing activity by the method of Example 6 (final NGF concentration 50 ng/ml)” value [2] turn out when B3 was run?
Answer: The value was 0.028 µg/mL.

B4: Tanezumab (antibody, V domains shown)
VH: QVQLQESGPGLVKPSETLSLTCTVSGFSLIGYDLNWIRQPPGKGLEWIGIIWGDGTTDYNSAVKSRVTISKDTSKNQFSLKLSSVTAADTAVYYCARGGYWYATSYYFDYWGQGTLVTVSS
VL: DIQMTQSPSSLSASVGDRVTITCRASQSISNNLNWYQQKPGKAPKLLIYYTSRFHSGVPSRFSGSGSGTDFTFTISSLQPEDIATYYCQQEHTLPYTFGQGTKLEIKR
Question: For B4, which “IC50, neutralizing activity by the method of Example 6 (Ca2+ rise, HEK293 cells expressing human trkA)” value [2] is on record?
Answer: The value was 0.17 µg/mL.

Question: And the “IC50, neutralizing activity by the method of Example 6 (Ca2+ rise, HEK293 cells expressing human trkA)” value [1]?
Answer: Its value is 0.23 µg/mL.

Question: And the IC50 [3]?
Answer: Its IC50 is 0.41 µg/mL.

Question: What about the Kd [4] of the same binder?
Answer: Its Kd is 20.4 nM.

B5: 1-15 antibody (chimeric antibody) (antibody, V domains shown)
VH: QVQLQQWGAGLLKPSETLSLTCAVYGGSFSGYYWSWVRQPPGKGLEWIGEINHSGSTNNNPSLKSRVTISVGTSKNQFSLKLSSVTAADTAVYYCSRDGGPESGMGAFDIWGQGTMVTVSS
VL: not shown
notes: also called 1−15と命名した抗体(キメラ抗体)
Question: Which results are given for B5?
Answer: binding result [5]: binds; binding result [6]: binds

B6: Fab fragment of the 1-15 antibody (papain digest) (Fab, V domains shown)
VH: QVQLQQWGAGLLKPSETLSLTCAVYGGSFSGYYWSWVRQPPGKGLEWIGEINHSGSTNNNPSLKSRVTISVGTSKNQFSLKLSSVTAADTAVYYCSRDGGPESGMGAFDIWGQGTMVTVSS
VL: not shown
notes: also called 1-15 Fab; 1価の抗体フラグメント
Question: Does B6 bind [7]?
Answer: Result: binds
